Measured values published in paper PMC11543927, “Subtleties in Clathrin heavy chain binding boxes provide selectivity among adaptor proteins of budding yeast” (Nature Communications, 2024).
Changes are numbered by the printed parent chain.

T1: ScChc-NTD Clathrin and W box mutant (Cla+W) (Saccharomyces cerevisiae, UniProt P22137 1-369, F26A | K63E | I87D | Q89A | K98E | Q155A)
T1 construct: Clathrin heavy chain N-terminal domain, Saccharomyces cerevisiae, residues 1-369, Clathrin and W box mutant
T1 sequence (looked up): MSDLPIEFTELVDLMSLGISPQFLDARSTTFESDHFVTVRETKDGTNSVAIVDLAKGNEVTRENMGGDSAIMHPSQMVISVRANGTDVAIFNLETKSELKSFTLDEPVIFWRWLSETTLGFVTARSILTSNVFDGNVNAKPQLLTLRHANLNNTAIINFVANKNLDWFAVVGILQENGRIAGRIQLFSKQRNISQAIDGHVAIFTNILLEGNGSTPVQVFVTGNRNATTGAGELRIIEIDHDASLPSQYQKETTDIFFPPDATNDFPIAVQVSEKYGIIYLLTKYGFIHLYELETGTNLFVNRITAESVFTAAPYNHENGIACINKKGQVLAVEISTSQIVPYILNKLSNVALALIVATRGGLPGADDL

T2: ScChc-NTD W-box mutant (F26A, Q155A) (Saccharomyces cerevisiae, UniProt P22137 1-369, F26A | Q155A)
T2 construct: Clathrin heavy chain N-terminal domain, Saccharomyces cerevisiae, residues 1-369, W-box mutant; also called W mutant
T2 sequence (looked up): T1 sequence (looked up) with E63K, D87I, A89Q, E98K

T3: Saccharomyces cerevisiae clathrin heavy chain N-terminal domain (ScChc-NTD, 1-369) (Saccharomyces cerevisiae, UniProt P22137 1-369)
T3 construct: Clathrin heavy chain N-terminal domain, Saccharomyces cerevisiae, residues 1-369; pETM-30 vector with a His-GST tag and a TEV cleavage site; also called WT NTD; source: E. coli BL21 (DE3), purified (Ni-NTA, TEV cleavage, reverse Ni-NTA, SEC)
T3 sequence (looked up): T1 sequence (looked up) with A26F, E63K, D87I, A89Q, E98K, A155Q

B1: Ent1 CBM peptide (GYTLIDL) (peptide)
peptide: GYTLIDL
notes: also called Ent1 peptide; source: synthetic peptide, bought: NovoProLabs
B2: Ent2 CBM peptide (GVSLIDL) (peptide)
peptide: GVSLIDL
notes: also called Ent2 peptide; source: synthetic peptide, bought: NovoProLabs

Tests used:
Conditions in all cases: both partners purified
[1] = target: T1, ScChc-NTD Clathrin and W box mutant …; assay: nanoDSF thermal shift; ScChc-NTD mutants 10 µM with Ent1 or Ent2 peptide, thermal ramp up to 80 °C; apparent KD from the Tm shift model
[2] = target: T2, ScChc-NTD W-box mutant (F26A, Q155A); assay: as above
[3] = target: T3, Saccharomyces cerevisiae clathrin heavy …; assay: nanoDSF thermal shift; ScChc-NTD 8 µM incubated with eleven peptide concentrations (1:1 dilutions) for 15 min, heated 20-95 °C at 1 °C/min, SEC buffer (50 mM Tris pH 9, 150 mM NaCl, 0.5 mM TCEP); apparent KD from the Tm shift model, one to one binding assumed, global average over all boxes

| Binder | fold decrease in binding against WT NTD [1] | binding result [2] | Kd [3] |
| --- | --- | --- | --- |
| B1 | ~9 fold | binds | ~138 µM |
| B2 | ~9 fold | binds | ~177 µM |
